Test results as given in patent US20220402981A1.

Key:
[1] = molecular target: DDB1ΔB-DCAF15biotin (human) (UniProt Q16531); assay: TR-FRET dimerization assay; the compound tasisulam is titrated (EC50 is of the compound), both proteins at 200 nM, FIG. 7F
[2] = molecular target: DDB1ΔB-DCAF15biotin-DDA1 (human) (UniProt Q16531); assay: TR-FRET with E7820; DDB1-DCAF15-DDA1 against DDB1-DCAF15
[3] = molecular target: DDB1ΔB-DCAF15biotin (human) (UniProt Q16531); assay: TR-FRET dimerization assay; the compound E7820 is titrated (EC50 is of the compound), both proteins at 200 nM, FIG. 7F
[4] = molecular target: DDB1ΔB-DCAF15biotin (human) (UniProt Q16531); assay: TR-FRET, BodipyFL-RBM39RRM2 titrated to DDB1ΔB-DCAF15biotin in the presence of indisulam at 50 µM; apparent KD
[5] = molecular target: DDB1ΔB-DCAF15biotin-DDA1 (human) (UniProt Q16531); assay: TR-FRET dimerization assay; the compound E7820 is titrated (EC50 is of the compound) to DDB1ΔB-DCAF15biotin-DDA1 and BodipyFL-RBM39RRM2, FIG. 3D
[6] = molecular target: DDB1ΔB-DCAF15biotin (human) (UniProt Q16531); assay: TR-FRET, BodipyFL-RBM39RRM2 titrated to DDB1ΔB-DCAF15biotin in the presence of E7820 (50 µM), FIG. 3C; apparent KD
[7] = molecular target: DDB1ΔB-DCAF15biotin (human) (UniProt Q16531); assay: TR-FRET dimerization assay; the compound indisulam is titrated (EC50 is of the compound), both proteins at 200 nM, FIG. 7F
[8] = molecular target: DDB1ΔB-DCAF15biotin (human) (UniProt Q16531); assay: TR-FRET, BodipyFL-RBM39RRM2 titrated to DDB1ΔB-DCAF15biotin in the presence of tasisulam at 50 µM; apparent KD
[9] = molecular target: DDB1ΔB-DCAF15biotin-DDA1 (human) (UniProt Q16531); assay: TR-FRET, BodipyFL-RBM39RRM2 titrated to DDB1ΔB-DCAF15biotin-DDA1 in the presence of E7820 (50 µM), FIG. 3C; apparent KD
[10] = molecular target: DDB1ΔB-DCAF15biotin (human) (UniProt Q16531); assay: TR-FRET, BodipyFL-RBM39RRM2 titrated to DDB1ΔB-DCAF15biotin in the presence of E7820 at 50 µM; apparent KD
[11] = molecular target: DDB1ΔB-DCAF15biotin (human) (UniProt Q16531); assay: TR-FRET dimerization assay; the compound E7820 is titrated (EC50 is of the compound) to DDB1ΔB-DCAF15 in the presence of BodipyFL-RBM23RRM2-WT, FIG. 5E

Chain of BodipyFL-RBM39RRM2 (Q14498 245-332): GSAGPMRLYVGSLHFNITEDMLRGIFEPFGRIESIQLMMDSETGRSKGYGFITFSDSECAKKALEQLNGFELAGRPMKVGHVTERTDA

| EC50 [1] [nM] | fold strengthening of apparent affinity against the complex without DDA1 [2] [fold] | EC50 [3] [nM] | Kd [4] [nM] | EC50 [5] [nM] | Kd [6] [nM] | EC50 [7] [nM] | Kd [8] [nM] | Kd [9] [nM] | Kd [10] [nM] | EC50 [11] [nM] | Substance |
| --- | --- | --- | --- | --- | --- | --- | --- | --- | --- | --- | --- |
| > 10000 | 3 | 740 | 2100 | 330 | 1900 | 3200 | 3500 | 620 | 2000 | – | BodipyFL-RBM39RRM2 (from UniProt Q14498 245-332) |
| – | – | – | – | – | – | – | – | – | – | 1000 | BodipyFL-RBM23RRM2-WT (from UniProt Q86U06 263-341) |
